Reference: patent publication US20030069395A1 (DYAX, published 2003)
Bridges are numbered along the chain shown (N, C = ends). Where no end group is shown, it is not given here. [ ]: non-standard residue; d: D form. fluorescein = fluorescein label; Ahx = NCCCCCC(=O)O

Legend:
[1] = target: T1, human serum albumin (HSA) (human, UniProt P02768 25-609); test: fluorescence anisotropy; pH 7.4, 0.14 M NaCl, no caprylate
T1 construct: also called caprylate-biotinylated-HSA
Description: (§1) Affinity determinations were made by first labeling polypeptides on the C-terminal end with NHS-fluorescein. Fluorescence anisotropy measurements were performed in 384-well microplates in a volume of 10 μl in binding buffer using a Tecan Polarion fluorescence polarization plate reader. The concentration of fluorescein labeled peptide was held constant (20 nM), and the concentration of HSA was varied. For pH 6.2, 7.1, and 7.4 binding conditions, a 3 mM phosphate, 0.01% Tween-20 buffer was used. For pH 9.1 binding conditions, a 3 mM sodium bicarbonate buffer, 0.01% Tween-20 nonionic detergent buffer was used. Once NaCl was added to any of these buffers, their pH was adjusted again to achieve the original pH. The binding mixtures were equilibrated for 10 minutes in the microplate at 30° C. prior to performing the measurement. The observed change in anisotropy was fit to the equation below via nonlinear regression to obtain the apparent KD. This equation assumes that the peptide and HSA form a reversible complex with 1:1 stoichiometry.

[2] = target: T1, human serum albumin (HSA); test: fluorescence anisotropy; pH 6.2, 0.14 M NaCl, no caprylate
Description: as §1

[3] = target: T1, human serum albumin (HSA); test: fluorescence anisotropy; pH 9.1, 0.14 M NaCl (as the head marks it), no caprylate
Description: as §1

[4] = target: T1, human serum albumin (HSA); test: fluorescence anisotropy; pH 7.4, 0.14 M NaCl, 0.1% caprylate
Description: as §1
Once all the positive phage isolates were sequenced, peptides corresponding to the display peptide were synthesized. A small amount of constant phage sequence surrounding each varied amino acid sequence region was retained and either a -GGGK-NH₂ (SEQ ID NO: 24) amino acid sequence or -X-K-NH₂ C-terminal tail was added to each peptide, where X is 6-aminohexanoic acid and K-NH₂ is an amidated terminal lysine residue. The constant phage sequence was retained because these residues can often play a role in target binding. To determine its affinity for HSA , each peptide was labeled with fluorescein on the C-terminal lysine side chain.

[5] = target: T1, human serum albumin (HSA); test: fluorescence anisotropy; buffer not named in Table 2
[6] = target: T1, human serum albumin (HSA); test: fluorescence anisotropy, truncated peptides
Description: as §1

chicken ovalbumin [7] = target: T2, chicken ovalbumin (Chicken, UniProt P01012 2-386); test: fluorescence anisotropy; PBS, pH 7.4, 0.14 M NaCl; negative control
T2 construct: Negative control; also called Chicken (egg)
T2 sequence (looked up): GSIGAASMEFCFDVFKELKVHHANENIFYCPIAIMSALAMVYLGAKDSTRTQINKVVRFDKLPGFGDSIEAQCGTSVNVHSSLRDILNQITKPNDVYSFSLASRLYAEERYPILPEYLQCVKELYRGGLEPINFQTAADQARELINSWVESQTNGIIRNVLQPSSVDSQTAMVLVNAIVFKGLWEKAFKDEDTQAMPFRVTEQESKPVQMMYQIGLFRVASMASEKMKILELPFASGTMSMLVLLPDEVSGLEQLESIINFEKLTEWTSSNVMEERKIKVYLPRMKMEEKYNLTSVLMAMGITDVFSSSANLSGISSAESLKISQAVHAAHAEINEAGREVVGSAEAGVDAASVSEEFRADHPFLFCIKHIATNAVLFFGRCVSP

chicken ovalbumin [8] = target: T2, chicken ovalbumin; test: fluorescence anisotropy; 3 mM phosphate, pH 6.2, 0 M NaCl; negative control
pig serum albumin = pig serum albumin (Pig, UniProt P08835 25-607); test: fluorescence anisotropy; 3 mM phosphate, pH 6.2, 0 M NaCl
Chain of pig serum albumin (P08835 25-607 limits assumed): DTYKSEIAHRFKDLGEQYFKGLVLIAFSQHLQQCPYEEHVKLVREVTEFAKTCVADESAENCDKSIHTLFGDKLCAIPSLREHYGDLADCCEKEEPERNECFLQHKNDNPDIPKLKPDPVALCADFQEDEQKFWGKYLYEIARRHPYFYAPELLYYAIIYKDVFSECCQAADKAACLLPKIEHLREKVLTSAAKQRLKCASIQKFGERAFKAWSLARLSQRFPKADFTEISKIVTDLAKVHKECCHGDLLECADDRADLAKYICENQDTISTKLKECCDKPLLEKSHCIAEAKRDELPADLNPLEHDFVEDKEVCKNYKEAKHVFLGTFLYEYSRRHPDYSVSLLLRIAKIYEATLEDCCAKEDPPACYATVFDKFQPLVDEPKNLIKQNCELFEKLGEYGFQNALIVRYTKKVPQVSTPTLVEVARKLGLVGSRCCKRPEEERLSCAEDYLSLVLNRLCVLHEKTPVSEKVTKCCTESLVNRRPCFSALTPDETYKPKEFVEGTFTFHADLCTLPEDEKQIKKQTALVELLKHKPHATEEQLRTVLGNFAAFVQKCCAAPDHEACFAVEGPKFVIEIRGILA

rabbit serum albumin = rabbit serum albumin (Rabbit, UniProt P49065 25-608); test: as above
Chain of rabbit serum albumin (P49065 25-608 limits assumed): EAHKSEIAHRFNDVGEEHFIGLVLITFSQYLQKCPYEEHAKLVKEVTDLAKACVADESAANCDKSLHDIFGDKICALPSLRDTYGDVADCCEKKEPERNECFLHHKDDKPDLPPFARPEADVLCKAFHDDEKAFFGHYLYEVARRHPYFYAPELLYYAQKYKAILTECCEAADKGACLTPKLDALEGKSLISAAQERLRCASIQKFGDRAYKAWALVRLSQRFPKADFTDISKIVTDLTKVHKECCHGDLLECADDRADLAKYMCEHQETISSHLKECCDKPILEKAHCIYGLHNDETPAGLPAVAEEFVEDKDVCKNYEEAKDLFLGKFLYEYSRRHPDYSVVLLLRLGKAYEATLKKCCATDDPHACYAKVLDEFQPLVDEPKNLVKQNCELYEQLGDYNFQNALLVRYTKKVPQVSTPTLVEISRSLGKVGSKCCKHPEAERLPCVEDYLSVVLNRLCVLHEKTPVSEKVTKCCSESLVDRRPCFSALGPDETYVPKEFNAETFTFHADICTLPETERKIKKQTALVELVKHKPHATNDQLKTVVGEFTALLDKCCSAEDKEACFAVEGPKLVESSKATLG

[9] = target: T1, human serum albumin (HSA); test: fluoresceinated peptide; PBS
Description: as §1
(§2) Each of the polypeptides was fluoresceinated and tested for binding against an immobilized HSA target as described above.

[10] = target: T1, human serum albumin (HSA); test: fluoresceinated peptide; 3 mM phosphate buffer, pH 6.2, no salt
Description: as §1, §2

[11] = target: T1, human serum albumin (HSA); test: phage ELISA on caprylate-biotinylated HSA held on streptavidin wells; TN12/1 solution-capture selection

B1: DX-313, Ac-AEGTGDDWDCVTRWANRDQQCWGPDPE-X-K-NH2 (peptide)
peptide: Ac-AEGTGDDWDCVTRWANRDQQCWGPDPE[Ahx]K(fluorescein)-NH2
modifications: disulfide 10-21
- Kd [1]: > 200 µM
- Kd [2]: 80 µM
- Kd [3]: 90 µM

B2: DX-315, Ac-AEGTGDDWDCVTRWANRDQQCWALDPE-X-K-NH2 (peptide)
peptide: Ac-AEGTGDDWDCVTRWANRDQQCWALDPE[Ahx]K(fluorescein)-NH2
modifications: not fully specified (bridges); printed as Ac-AEGTGDDWDCVTRWANRDQQCWALDPE-X-K-NH2; cysteine pairing not given here
- Kd [4]: > 100 µM
- Kd [2]: > 200 µM

B3: DX-297, Ac-AEGTGSWKVCDHFFCLSPAPE-X-K-NH2 (peptide)
peptide: Ac-AEGTGSWKVCDHFFCLSPAPE[Ahx]K(fluorescein)-NH2
modifications: disulfide 10-15
- Kd [1]: > 200 µM
- Kd [4]: > 200 µM
- Kd [2]: > 200 µM

B4: DX-296, Ac-AEGTGSHVGCNNALCMQYAPE-X-K-NH2 (peptide)
peptide: Ac-AEGTGSHVGCNNALCMQYAPE[Ahx]K(fluorescein)-NH2
modifications: disulfide 10-15
- Kd [4]: > 200 µM
- Kd [2]: > 100 µM

B5: truncated peptide of DX-236, Ac-FWFCDRIAWYPQHLCEFLDPEGGGK-NH2 (peptide)
peptide: Ac-FWFCDRIAWYPQHLCEFLDPEGGGK(fluorescein)-NH2
modifications: not fully specified (bridges); printed as Ac-FWFCDRIAWYPQHLCEFLDPEGGGK-NH2; cysteine pairing not given here
- Kd [5]: 8.9 µM
- fold increase in KD against DX-236 (SEQ ID NO: 19) [6]: ~4 fold

B6: DX-236, Ac-AEGTGDFWFCDRIAWYPQHLCEFLDPEGGGK-NH2 (peptide)
peptide: Ac-AEGTGDFWFCDRIAWYPQHLCEFLDPEGGGK-NH2
modifications: not fully specified; cysteine pairing not given here
- Kd (chicken ovalbumin [7]): > 200 µM
- Kd (chicken ovalbumin [8]): > 200 µM
- Kd (pig serum albumin): 0.5 µM
- Kd (rabbit serum albumin): 0.5 µM

B7: alanine mutant of DX-236, Ac-AEGTGDFWFCARIAWYPQHLCEFLDPEGGGK-NH2 (peptide)
peptide: Ac-AEGTGDFWFCARIAWYPQHLCEFLDPEGGGK-NH2
modifications: cysteine pairing not given here; also: fluoresceinated, site not given here
- Kd [9]: 5 µM

B8: alanine mutant of DX-236, Ac-AEGTGDFWFCDRIAWYPQHACEFLDPEGGGK-NH2 (peptide)
peptide: Ac-AEGTGDFWFCDRIAWYPQHACEFLDPEGGGK-NH2
modifications: cysteine pairing not given here; also: fluorescein label, position not given here
- Kd [10]: 2 µM

B9: alanine mutant of DX-236, Ac-AEGTGDFWFCDRIAWAPQHLCEFLDPEGGGK-NH2 (peptide)
peptide: Ac-AEGTGDFWFCDRIAWAPQHLCEFLDPEGGGK-NH2
modifications: cysteine pairing not given here; also: fluoresceinated, site not given here
- Kd [10]: 1.4 µM

B10: alanine mutant of DX-236, Ac-AEGTGDFWFCDRIAWYPAHLCEFLDPEGGGK-NH2 (peptide)
peptide: Ac-AEGTGDFWFCDRIAWYPAHLCEFLDPEGGGK-NH2
modifications: cysteine pairing not given here; also: fluoresceinated, site not given here
- Kd [10]: 2.2 µM

B11: alanine mutant of DX-236, Ac-AEGTGDFWFCDRIAWYAQHLCEFLDPEGGGK-NH2 (peptide)
peptide: Ac-AEGTGDFWFCDRIAWYAQHLCEFLDPEGGGK-NH2
modifications: cysteine pairing not given here; also: fluoresceinated, site not given here
- Kd [10]: 1.3 µM

B12: alanine mutant of DX-236, Ac-AEGTGDFWFCDRIAAYPQHLCEFLDPEGGGK-NH2 (peptide)
peptide: Ac-AEGTGDFWFCDRIAAYPQHLCEFLDPEGGGK-NH2
modifications: cysteine pairing not given here; also: fluoresceinated, site not given here
- Kd [10]: 1.4 µM

B13: alanine mutant of DX-236, Ac-AEGTGDFWFCDAIAWYPQHLCEFLDPEGGGK-NH2 (peptide)
peptide: Ac-AEGTGDFWFCDAIAWYPQHLCEFLDPEGGGK-NH2
modifications: cysteine pairing not given here; also: fluoresceinated, site not given here
- Kd [10]: 1.5 µM

B14: alanine mutant of DX-236, Ac-AEGTGDFAFCDRIAWYPQHLCEFLDPEGGGK-NH2 (peptide)
peptide: Ac-AEGTGDFAFCDRIAWYPQHLCEFLDPEGGGK-NH2
modifications: cysteine pairing not given here; also: fluoresceinated, site not given here
- Kd [10]: 2.3 µM

B15: alanine mutant of DX-236, Ac-AEGTGAFWFCDRIAWYPQHLCEFLDPEGGGK-NH2 (peptide)
peptide: Ac-AEGTGAFWFCDRIAWYPQHLCEFLDPEGGGK-NH2
modifications: cysteine pairing not given here; also: fluoresceinated, site not given here
- Kd [10]: 5.1 µM

B16: alanine mutant of DX-236, Ac-AEGTGDAWFCDRIAWYPQHLCEFLDPEGGGK-NH2 (peptide)
peptide: Ac-AEGTGDAWFCDRIAWYPQHLCEFLDPEGGGK-NH2
modifications: cysteine pairing not given here; also: fluoresceinated, site not given here
- Kd [10]: 5.1 µM

B17: truncated peptide of DX-236, Ac-AEGTGDFWFCDRIAWYPQHLCGGGK-NH2 (peptide)
peptide: Ac-AEGTGDFWFCDRIAWYPQHLCGGGK(fluorescein)-NH2
modifications: not fully specified (bridges); printed as Ac-AEGTGDFWFCDRIAWYPQHLCGGGK-NH2; cysteine pairing not given here
- Kd [5]: 8.9 µM
- fold increase in KD against DX-236 (SEQ ID NO: 19) [6]: ~4 fold

B18: DX-319, Ac-AEGTGDDWQCVKDWANRRRGCMADDPE-X-K-NH2 (peptide)
peptide: Ac-AEGTGDDWQCVKDWANRRRGCMADDPE[Ahx]K(fluorescein)-NH2
modifications: disulfide 10-21
- Kd [1]: > 200 µM
- Kd [2]: > 200 µM

B19: phage isolate displaying DWDCVTRWANRDQQCWGP (SEQ ID NO: 247) (peptide)
chain: DWDCVTRWANRDQQCWGP
modifications: not fully specified (bridges); cysteine pairing not given here
notes: Whole phage in the ELISA; not shown: protein III of M13 phage; the display peptide stands at its amino terminus
- binding result [11]: binds

B20: DX-298, Ac-AEGTGSNHGCWHFSCIWDAPE-X-K-NH2 (peptide)
peptide: Ac-AEGTGSNHGCWHFSCIWDAPE[Ahx]K(fluorescein)-NH2
modifications: disulfide 10-15
- Kd [2]: > 200 µM
- Kd [3]: > 200 µM
